T1: human IL-33 (R&D systems) (human, UniProt O95760 112-270)
T1 sequence (looked up): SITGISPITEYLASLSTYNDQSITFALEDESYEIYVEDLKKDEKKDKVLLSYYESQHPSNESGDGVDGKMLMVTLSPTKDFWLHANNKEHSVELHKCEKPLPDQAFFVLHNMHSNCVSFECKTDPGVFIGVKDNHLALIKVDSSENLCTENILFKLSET

B1: SM17-anti TSLP 1# bsBp (bispecific antibody, human IgG4 S228P, kappa)
heavy: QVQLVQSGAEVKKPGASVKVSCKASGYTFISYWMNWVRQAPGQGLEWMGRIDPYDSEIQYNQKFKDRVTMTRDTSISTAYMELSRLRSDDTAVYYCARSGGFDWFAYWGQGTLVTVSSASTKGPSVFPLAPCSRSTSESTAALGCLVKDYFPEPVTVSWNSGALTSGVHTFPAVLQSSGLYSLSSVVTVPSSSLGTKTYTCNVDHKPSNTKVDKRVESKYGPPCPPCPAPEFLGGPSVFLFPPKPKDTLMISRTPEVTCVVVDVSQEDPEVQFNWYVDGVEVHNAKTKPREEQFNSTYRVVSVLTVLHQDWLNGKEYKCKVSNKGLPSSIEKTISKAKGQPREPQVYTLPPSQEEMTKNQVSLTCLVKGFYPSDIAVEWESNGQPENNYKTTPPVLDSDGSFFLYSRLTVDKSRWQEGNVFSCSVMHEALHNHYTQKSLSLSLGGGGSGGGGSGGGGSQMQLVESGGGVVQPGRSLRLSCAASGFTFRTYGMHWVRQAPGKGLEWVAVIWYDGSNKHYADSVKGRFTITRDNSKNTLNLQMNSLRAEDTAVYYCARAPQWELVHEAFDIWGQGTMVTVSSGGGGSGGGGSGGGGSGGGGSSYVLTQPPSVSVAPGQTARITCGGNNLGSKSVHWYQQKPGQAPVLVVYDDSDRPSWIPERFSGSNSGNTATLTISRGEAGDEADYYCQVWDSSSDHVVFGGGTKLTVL
light: DIQMTQSPSSLSASVGDRVTITCRASENINSNLAWYQQKPGKAPKLLLYDVTNLADGVPSRFSGSGSGTDYTLTISSLQPEDFATYYCQHFWGPPYTFGGGTKVEIKRTVAAPSVFIFPPSDEQLKSGTASVVCLLNNFYPREAKVQWKVDNALQSGNSQESVTEQDSKDSTYSLSSTLTLSKADYEKHKVYACEVTHQGLSSPVTKSFNRGEC
notes: SM17 IgG with an anti-TSLP scFv fused to the C-terminus of each heavy chain; expressed in ExpiCHO-S cells
B2: SM17-anti IL-33 3# bsBp (bispecific antibody, human IgG4 S228P, kappa)
heavy: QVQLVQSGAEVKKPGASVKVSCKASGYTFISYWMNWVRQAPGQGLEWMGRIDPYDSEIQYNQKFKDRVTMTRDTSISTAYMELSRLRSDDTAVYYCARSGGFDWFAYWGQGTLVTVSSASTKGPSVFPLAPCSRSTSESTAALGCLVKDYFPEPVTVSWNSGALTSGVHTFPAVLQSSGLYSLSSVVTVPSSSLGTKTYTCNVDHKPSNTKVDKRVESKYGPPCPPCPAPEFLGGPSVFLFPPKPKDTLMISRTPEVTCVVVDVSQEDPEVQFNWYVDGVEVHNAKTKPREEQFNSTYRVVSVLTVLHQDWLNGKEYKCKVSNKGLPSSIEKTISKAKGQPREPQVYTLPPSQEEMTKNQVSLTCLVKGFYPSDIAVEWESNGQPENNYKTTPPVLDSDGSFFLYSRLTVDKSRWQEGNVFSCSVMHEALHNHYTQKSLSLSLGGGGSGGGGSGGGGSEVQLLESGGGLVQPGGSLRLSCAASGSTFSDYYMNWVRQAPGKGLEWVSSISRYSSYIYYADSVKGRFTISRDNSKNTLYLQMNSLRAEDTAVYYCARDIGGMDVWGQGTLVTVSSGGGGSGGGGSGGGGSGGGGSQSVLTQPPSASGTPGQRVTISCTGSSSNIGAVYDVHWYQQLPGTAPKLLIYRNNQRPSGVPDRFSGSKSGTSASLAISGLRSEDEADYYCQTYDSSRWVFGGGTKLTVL
light: B1 light
notes: SM17 IgG with an anti-IL-33 scFv fused to the C-terminus of each heavy chain
B3: SM17-anti IL-33 2# bsBp (bispecific antibody, human IgG4 S228P, kappa)
heavy: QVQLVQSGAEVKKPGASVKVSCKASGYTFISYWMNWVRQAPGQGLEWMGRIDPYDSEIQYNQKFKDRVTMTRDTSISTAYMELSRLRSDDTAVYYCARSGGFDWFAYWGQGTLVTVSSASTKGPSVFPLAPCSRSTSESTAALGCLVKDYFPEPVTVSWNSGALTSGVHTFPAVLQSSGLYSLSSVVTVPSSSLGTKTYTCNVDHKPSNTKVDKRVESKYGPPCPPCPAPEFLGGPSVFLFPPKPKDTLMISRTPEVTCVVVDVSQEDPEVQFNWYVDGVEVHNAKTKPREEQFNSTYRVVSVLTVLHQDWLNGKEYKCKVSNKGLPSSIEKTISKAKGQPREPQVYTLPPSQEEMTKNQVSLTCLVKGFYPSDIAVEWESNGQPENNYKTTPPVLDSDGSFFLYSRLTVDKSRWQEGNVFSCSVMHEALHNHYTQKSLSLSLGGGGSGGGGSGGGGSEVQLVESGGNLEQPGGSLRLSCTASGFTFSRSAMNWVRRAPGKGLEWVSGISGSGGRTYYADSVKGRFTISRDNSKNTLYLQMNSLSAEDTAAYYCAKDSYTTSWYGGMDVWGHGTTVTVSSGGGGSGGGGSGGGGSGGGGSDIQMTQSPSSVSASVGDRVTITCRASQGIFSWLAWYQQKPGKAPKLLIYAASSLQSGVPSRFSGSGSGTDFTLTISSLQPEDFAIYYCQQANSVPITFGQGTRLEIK
light: B1 light
notes: as for B2
B4: SM17-anti IL-33 1# bsBp (bispecific antibody, human IgG4 S228P, kappa)
heavy: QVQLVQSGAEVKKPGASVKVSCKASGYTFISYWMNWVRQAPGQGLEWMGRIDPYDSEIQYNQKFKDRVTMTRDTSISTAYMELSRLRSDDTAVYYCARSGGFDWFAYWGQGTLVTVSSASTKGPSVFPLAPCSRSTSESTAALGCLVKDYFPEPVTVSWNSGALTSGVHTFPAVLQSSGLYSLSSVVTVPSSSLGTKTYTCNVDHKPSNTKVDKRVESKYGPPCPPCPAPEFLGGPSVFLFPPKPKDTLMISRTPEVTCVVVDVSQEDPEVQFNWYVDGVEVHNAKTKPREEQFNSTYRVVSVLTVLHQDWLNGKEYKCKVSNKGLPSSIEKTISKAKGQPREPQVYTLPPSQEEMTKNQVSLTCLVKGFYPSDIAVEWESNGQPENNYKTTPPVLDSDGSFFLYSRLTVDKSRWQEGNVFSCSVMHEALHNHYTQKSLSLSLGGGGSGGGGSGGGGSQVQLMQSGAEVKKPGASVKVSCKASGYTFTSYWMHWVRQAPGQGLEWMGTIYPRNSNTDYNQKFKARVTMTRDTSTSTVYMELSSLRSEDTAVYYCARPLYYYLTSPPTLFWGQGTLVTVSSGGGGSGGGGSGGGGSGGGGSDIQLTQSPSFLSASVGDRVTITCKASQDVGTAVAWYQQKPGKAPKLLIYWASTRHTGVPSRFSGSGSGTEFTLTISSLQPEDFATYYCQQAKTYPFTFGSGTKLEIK
light: B1 light
notes: as for B2
B5: SM17-anti TSLP 2# bsBp (bispecific antibody, human IgG4 S228P, kappa)
heavy: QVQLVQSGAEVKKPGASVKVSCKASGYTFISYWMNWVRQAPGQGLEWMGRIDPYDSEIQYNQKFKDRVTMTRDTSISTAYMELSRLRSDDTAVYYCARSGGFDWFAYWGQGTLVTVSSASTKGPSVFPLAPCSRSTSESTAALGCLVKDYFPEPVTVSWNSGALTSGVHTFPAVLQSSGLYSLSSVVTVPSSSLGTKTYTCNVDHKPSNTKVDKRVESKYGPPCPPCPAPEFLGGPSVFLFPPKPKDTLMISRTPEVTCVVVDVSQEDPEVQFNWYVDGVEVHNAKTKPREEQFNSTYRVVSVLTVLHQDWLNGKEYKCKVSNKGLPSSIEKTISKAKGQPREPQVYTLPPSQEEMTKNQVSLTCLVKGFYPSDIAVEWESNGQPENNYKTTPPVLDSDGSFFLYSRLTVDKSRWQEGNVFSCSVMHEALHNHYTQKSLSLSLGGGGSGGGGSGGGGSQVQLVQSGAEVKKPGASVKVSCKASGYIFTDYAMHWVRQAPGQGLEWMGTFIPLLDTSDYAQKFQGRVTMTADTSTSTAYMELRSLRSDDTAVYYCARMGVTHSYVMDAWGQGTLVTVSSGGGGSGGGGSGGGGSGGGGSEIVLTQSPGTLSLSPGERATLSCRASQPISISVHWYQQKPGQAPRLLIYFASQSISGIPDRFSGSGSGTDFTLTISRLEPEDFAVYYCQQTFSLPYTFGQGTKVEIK
light: B1 light
notes: SM17 IgG with an anti-TSLP scFv fused to the C-terminus of each heavy chain; also called SM17-anti-TSLP bsBp 2 #

Columns and labels:
human TSLP (R&D systems) = target: T2, human TSLP (R&D systems) (human, UniProt Q969D9 29-159); assay: BLI (Octet RED96), binder captured via anti-human Fab CH1, TSLP in solution
T2 construct: also called thymic stromal lymphopoietin
Method: (§1) Biosensors immobilized with irrelevant antibody (SM03, anti-human CD22 chimeric IgG1 antibody, SinoMab BioScience Limited, 20 μg/mL) were used as control reference.

[1] = target: T1, human IL-33 (R&D systems); assay: BLI (Octet RED96), binder captured via anti-human Fab CH1, IL33 in solution
Method: as §1

Row | Binder | Kd (human TSLP (R&D systems)) [nM] | koff (human TSLP (R&D systems)) [s⁻¹] | kon (human TSLP (R&D systems)) [M⁻¹ s⁻¹] | Kd [1] [nM] | koff [1] [s⁻¹] | kon [1] [M⁻¹ s⁻¹]
1 | B1 | 0.511 | 0.000241 | 472000 | – | – | –
2 | B2 | – | – | – | ≤ 0.0425 | < 1e-07 | 22700
3 | B3 | – | – | – | < 0.0259 | < 1e-07 | 37300
4 | B4 | – | – | – | 28.9 | 0.000283 | 9810
5 | B5 | < 0.001 | < 1e-07 | 374000 | – | – | –

— patent US20240409647A1 (SINOMAB BIOSCIENCE, published 2024)
